The source of these data is PMC3909270, “The basic keratin 10-binding domain of the virulence-associated pneumococcal serine-rich protein PsrP adopts a novel MSCRAMM fold” (Open Biology, 2014).

To fix the notation:
B1: Strep-Tag-II BR_(187–385) (KRT10-binding domain of the pneumococcal serine-rich repeat protein PsrP) [S. pneumoniae TIGR4] / KRT10 tail-rod-2B domain (KRT10-TRD) [human] (parent complex)
chain 1: FSGNTIVNGAPAINASLNIAKSETKVYTGEGVDSVYRVPIYYKLKVTNDGSKLTFTYTVTYVNPKTNDLGNISSMRPGYSIYNSGTSTQTMLTLGSDLGKPSGVKNYITDKNGRQVLSYNTSTMTTQGSGYTWGNGAQMNGFFAKKGYGLTSSWTVPITGTDTSFTFTPYAARTDRIGINYFNGGGKVVESSTTSQSLS
chain 2: LKQSLEASLAETEGRYCVQLSQIQAQISALEEQLQQIRAETECQNTEYQQLLDIKIRLENEIQTYRSLLEGEGSSGGGGRGGGSFGGGYGGGSSGGGSSGGGHGGGHGGSSGGGYGGGSSGGGSSGGGYGGGSSSGGHGGSSSGGYGGGSSGGGGGGYGGGSSGGGSSSGGGYGGGSSSGGHKSSSSGSVGESSS

In the experiment the parent is B1. The experiment in a line: ELISA; KRT10-TRD coated in wells of ELISA plates; parent: 1; read off a plot.
For chain 1 FSGNTIVNGAPAINASLNIAKSETKVYTGEGVDSVYRVPIYYKLAVTNDGSKLTFTYTVTYVNPKTNDLGNISSMRPGYSIYNSGTSTQTMLTLGSDLGKPSGVKNYITDKNGRQVLSYNTSTMTTQGSGYTWGNGAQMNGFFAKKGYGLTSSWTVPITGTDTSFTFTPYAARTDRIGINYFNGGGKVVESSTTSQSLS [chain 1 K45A], the response was roughly 0.97 normalized absorbance.
chain 1 FSGNTIVNGAPAINASLNIAKSETKVYTGEGVDSVYRVPIYYKLKVTNDGSKLTFTYTVTYVNPKTNDLGNISSMRPGYSIYNSGTSTQTMLTLGSDLGKPSGVKNYITDKNGRQVLSYNTSTMTTQGSGYTWGAGAQMNGFFAKKGYGLTSSWTVPITGTDTSFTFTPYAARTDRIGINYFNGGGKVVESSTTSQSLS [chain 1 N135A]: the response was roughly 1.1 normalized absorbance.
